The record followed here is patent US20060172357A1, “Detecting human antibodies in non-human serum” (Genentech, priority 2004, published 2006).

In test [1] the target is full-length CD20 molecule (human) (UniProt P11836). The test can be described thus: ELISA, full-length CD20 coated at 5 µg/mL in PBS, detection sheep anti-hu IgG HRP (monkey adsorbed). (ELISA stands for enzyme-linked immunosorbent assay.)
For test [2] the target is unchanged. Put plainly: ELISA, full-length CD20 coated at 5 µg/mL in PBS, detection goat anti-hu F(ab')2 HRP.
The target is the same in test [3]. The test can be described thus: ELISA, full-length CD20 coated at 1 µg/mL in PBS, detection sheep anti-hu IgG HRP (monkey adsorbed).
For test [4] the target is unchanged. The test can be described thus: ELISA, full-length CD20 coated at 1 µg/mL in PBS, detection goat anti-hu F(ab')2 HRP.
The target of test [5] is T1, biotinylated CD20 35-mer (streptavidin plate ELISA; mono- or bis-biotin form not stated).
T1 sequence (peptide, biotinylated (mono or bis not stated); C-terminal amide; disulfide-cyclized): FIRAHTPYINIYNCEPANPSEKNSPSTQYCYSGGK
Put plainly: ELISA, streptavidin plate with CD20 35-mer at 10 µg/ml, 3 wash cycles between steps, goat anti-human IgG (H+L) HRP detection.

Test [6] shares this target. Put plainly: ELISA, streptavidin plate with CD20 35-mer at 2 µg/ml, 1 wash cycle between steps, goat anti-human IgG (H+L) HRP detection.
The target is the same in test [7]. Put plainly: ELISA, streptavidin plate with CD20 35-mer at 10 µg/ml, 1 wash cycle between steps, goat anti-human IgG (H+L) HRP detection.
Test [8] deals with Bis-biotin disulfide-cyclized CD20 35-mer. Put plainly: SPR Biacore 3000, method 2: Bis-CD20-35mer on streptavidin chip at 685 RU, 2H7-IgG injected, bivalent analyte model, apparent KD.
Test [9] deals with T1, biotinylated CD20 35-mer (streptavidin plate ELISA; mono- or bis-biotin form not stated). Put plainly: ELISA, streptavidin plate with CD20 35-mer at 10 µg/ml, 2 wash cycles between steps, goat anti-human IgG (H+L) HRP detection.
In test [10] the target is disulfide-cyclized Bis-biotin CD20 51-mer. The test can be described thus: SPR Biacore 3000, method 2: Bis-CD20-51mer on streptavidin chip at 1037 RU, 2H7-IgG injected, bivalent analyte model, apparent KD. On the technique in general: SPR reads the build-up and loss of mass on a sensor chip optically.
Sequence of disulfide-cyclized Bis-biotin CD20 51-mer (peptide, as listed by the source): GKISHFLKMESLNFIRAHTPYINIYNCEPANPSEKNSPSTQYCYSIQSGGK
The target in test [11] is T2, disulfide-cyclized mono-biotin CD20 35-mer.
T2 sequence (peptide, N-terminal biotin; C-terminal amide; disulfide-cyclized): T1 sequence (peptide, biotinylated (mono or bis not stated); C-terminal amide; disulfide-cyclized)
The test can be described thus: SPR Biacore 3000, method 1: Mono-CD20-35mer on streptavidin chip at 95 RU, 2H7-IgG injected, 1:1 model, apparent KD.

Test [12] addresses T1, biotinylated CD20 35-mer (streptavidin plate ELISA; mono- or bis-biotin form not stated). The test can be described thus: ELISA, streptavidin plate with CD20 35-mer at 20 µg/ml, 2 wash cycles between steps, goat anti-human IgG (H+L) HRP detection.
For test [13] the target is unchanged. The test can be described thus: ELISA, streptavidin plate with CD20 35-mer at 20 µg/ml, 1 wash cycle between steps, goat anti-human IgG (H+L) HRP detection.
Test [14] deals with rhuMAb2H7. Put plainly: direct sandwich ELISA, sheep anti-human IgG capture, goat anti-human IgG (H+L) HRP detection diluted in Buffer A + 0.2% BGG (A2).
The target in test [15] is rhuMAb2H7. Put plainly: direct sandwich ELISA, sheep anti-human IgG capture, goat anti-human IgG (H+L) HRP detection diluted in Buffer D - BGG (D1).
Test [16] deals with rhuMAb2H7. The test can be described thus: direct sandwich ELISA, sheep anti-human IgG capture, goat anti-human IgG HRP detection, buffer E (HEPES) in all steps, n = 8.
The target in test [17] is rhuMAb2H7. Put plainly: direct sandwich ELISA, sheep anti-human IgG capture, goat anti-human IgG (H+L) HRP detection diluted in Buffer A + 5 mM EDTA (A3).
Test [18] concerns the target rhuMAb2H7. Put plainly: bridging ELISA, sheep anti-human IgG capture and detection; blocking D, sample diluent D, detection diluent A.
Test [19] deals with rhuMAb2H7. The test can be described thus: direct sandwich ELISA, sheep anti-human IgG capture, goat anti-human IgG HRP detection, buffer B in all steps, n = 8.
Test [20] deals with rhuMAb2H7. The test can be described thus: bridging ELISA, sheep anti-human IgG capture and detection; D1 + 0.2% rabbit IgG in blocking, sample and detection buffers.
The target of test [21] is rhuMAb2H7. The test can be described thus: direct sandwich ELISA, sheep anti-human IgG capture, goat anti-human IgG HRP detection, buffer D (with BGG) in all steps, n = 8.
For test [22], the target named is rhuMAb2H7. Put plainly: direct sandwich ELISA, sheep anti-human IgG capture, goat anti-human IgG (H+L) HRP detection diluted in Buffer D.
Test [23] concerns the target rhuMAb2H7. The test can be described thus: bridging ELISA, sheep anti-human IgG capture and detection; D1 + 0.2% donkey IgG in blocking, sample and detection buffers.
For test [24], the target named is rhuMAb2H7. Put plainly: bridging ELISA, sheep anti-human IgG capture and detection; D1 + 0.2% mouse IgG in blocking, sample and detection buffers.
Test [25] has as its target rhuMAb2H7. Put plainly: direct sandwich ELISA, sheep anti-human IgG capture, goat anti-human IgG (H+L) HRP detection diluted in Buffer A.
Test [26] deals with rhuMAb2H7. Put plainly: direct sandwich ELISA, sheep anti-human IgG capture, goat anti-human IgG (H+L) HRP detection diluted in Buffer A + 0.35 M NaCl (A1).
For test [27], the target named is rhuMAb2H7. Put plainly: direct sandwich ELISA, sheep anti-human IgG capture, goat anti-human IgG (H+L) HRP detection diluted in Buffer A + 0.25% CHAPS (A4).
The target in test [28] is rhuMAb2H7. The test can be described thus: bridging ELISA, sheep anti-human IgG capture and detection; blocking D, sample diluent D1, detection diluent D1.
The target in test [29] is rhuMAb2H7. Put plainly: bridging ELISA, sheep anti-human IgG capture and detection; blocking D, sample diluent D, detection diluent D.
For test [30], the target named is rhuMAb2H7. Put plainly: direct sandwich ELISA, sheep anti-human IgG capture, goat anti-human IgG HRP detection, buffer C (with BGG) in all steps, n = 8.
The target of test [31] is rhuMAb2H7. The test can be described thus: bridging ELISA, sheep anti-human IgG capture and detection; blocking D1 + 0.2% fish gelatin, other diluents not given.
Test [32] has as its target rhuMAb2H7. The test can be described thus: direct sandwich ELISA, sheep anti-human IgG capture, goat anti-human IgG HRP detection, buffer A in all steps, n = 8.

Sequence of full-length CD20 molecule (human) (P11836 whole entry): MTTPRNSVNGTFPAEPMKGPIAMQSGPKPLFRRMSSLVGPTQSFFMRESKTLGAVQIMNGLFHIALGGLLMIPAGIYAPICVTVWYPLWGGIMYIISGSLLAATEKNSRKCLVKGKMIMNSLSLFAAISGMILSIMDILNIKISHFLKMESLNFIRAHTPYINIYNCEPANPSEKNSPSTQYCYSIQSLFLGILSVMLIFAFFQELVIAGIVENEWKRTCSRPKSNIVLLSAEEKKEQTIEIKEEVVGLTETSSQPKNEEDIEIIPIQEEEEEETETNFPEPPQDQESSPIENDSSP
Sequence of rhuMAb2H7 (antibody) (VH): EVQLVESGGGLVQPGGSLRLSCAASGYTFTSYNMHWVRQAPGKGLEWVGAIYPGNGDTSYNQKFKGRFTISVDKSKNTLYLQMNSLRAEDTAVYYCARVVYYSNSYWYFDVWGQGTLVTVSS
Sequence of rhuMAb2H7 (antibody) (VL): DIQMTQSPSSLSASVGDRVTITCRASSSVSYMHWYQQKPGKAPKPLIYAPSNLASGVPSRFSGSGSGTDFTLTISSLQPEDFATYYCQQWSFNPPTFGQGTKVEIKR

Regarding Rituxan (antibody), the signal of 247 ng/ml of Rituxan (O.D.450 nm) worked out at 0.023 O.D in test [1], 0.166 O.D in test [2], 0.012 O.D in test [3] and 0.065 O.D in test [4].

With rhuMAb2H7 (antibody), the O.D. (450-650 nm) for 160 µg/ml of rhuMAb2H7 in test [5] stood at 0.009 O.D; in [6], 0.063 O.D; in test [7], 0.063 O.D; in [9], 0.009 O.D; in test [12], 0.01 O.D; in test [13], 0.055 O.D. For the same substance, the Kd was found to be 500 nM in [8], 110 nM in test [10] and 41700 nM in test [11].

Regarding “sheep anti-human IgG heavy (H) and light (L) chain, cynomolgus monkey serum adsorbed (Cat #CUS1684, The Binding Site) (antibody)”, the 240 ng/ml 2H7 (O.D. 450-650 nm) with rhuMAb2H7 [14] came out at 2.28 O.D; with rhuMAb2H7 [15], 1.65 O.D; in the test with rhuMAb2H7 [17], 2.13 O.D; with rhuMAb2H7 [22] it was 0.962 O.D; with rhuMAb2H7 [25] it was 2.23 O.D; in the test with rhuMAb2H7 [26], 2 O.D. In addition, in the test with rhuMAb2H7 [27], the 240 ng/ml 2H7 (O.D. 450-650 nm) was 2.15 O.D. Further, the Signal, O.D. 450-650 nm at 240 ng/ml rhuMAb2H7 with rhuMAb2H7 [16] is 2.1 O.D; with rhuMAb2H7 [19] it was 1.91 O.D; with rhuMAb2H7 [21], 1.72 O.D; with rhuMAb2H7 [30] it was 1.88 O.D; with rhuMAb2H7 [32], 2.04 O.D. In the test with rhuMAb2H7 [18], this substance came in with a Signal of 256 ng/ml of 2H7 of 1.6 O.D. Moreover, the Signal of 2H7 at 240 ng/ml with rhuMAb2H7 [20] was determined as 0.06 O.D; in the test with rhuMAb2H7 [23], 0.38 O.D; with rhuMAb2H7 [24], 0.09 O.D; in the test with rhuMAb2H7 [28], 1.04 O.D; with rhuMAb2H7 [29], 1.15 O.D; with rhuMAb2H7 [31], 0.34 O.D.
